The target of experiment [1] is T1, p75^NTR (Mus musculus, UniProt Q9Z0W1).
T1 construct: endogenous in cells; host or cells: murine plasmacytoid dendritic cells differentiated in vitro from bone marrow with Flt3-L (p75NTR+/+ wildtype; p75NTR-/- as control)
T1 sequence (Q9Z0W1 32-427): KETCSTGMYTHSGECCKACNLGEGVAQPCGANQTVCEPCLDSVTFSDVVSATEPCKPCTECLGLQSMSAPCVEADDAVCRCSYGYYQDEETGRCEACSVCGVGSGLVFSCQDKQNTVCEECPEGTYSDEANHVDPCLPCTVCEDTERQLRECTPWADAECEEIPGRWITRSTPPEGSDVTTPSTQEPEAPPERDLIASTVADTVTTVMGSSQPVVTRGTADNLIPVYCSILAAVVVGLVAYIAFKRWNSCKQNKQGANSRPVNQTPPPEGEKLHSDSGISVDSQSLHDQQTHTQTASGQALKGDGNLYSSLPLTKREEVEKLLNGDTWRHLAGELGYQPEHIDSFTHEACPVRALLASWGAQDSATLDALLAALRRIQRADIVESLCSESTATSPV
The following applies: in vivo.

Experiment [2] has as its target T2, p75^NTR (Homo sapiens, UniProt P08138).
T2 sequence (P08138 29-427): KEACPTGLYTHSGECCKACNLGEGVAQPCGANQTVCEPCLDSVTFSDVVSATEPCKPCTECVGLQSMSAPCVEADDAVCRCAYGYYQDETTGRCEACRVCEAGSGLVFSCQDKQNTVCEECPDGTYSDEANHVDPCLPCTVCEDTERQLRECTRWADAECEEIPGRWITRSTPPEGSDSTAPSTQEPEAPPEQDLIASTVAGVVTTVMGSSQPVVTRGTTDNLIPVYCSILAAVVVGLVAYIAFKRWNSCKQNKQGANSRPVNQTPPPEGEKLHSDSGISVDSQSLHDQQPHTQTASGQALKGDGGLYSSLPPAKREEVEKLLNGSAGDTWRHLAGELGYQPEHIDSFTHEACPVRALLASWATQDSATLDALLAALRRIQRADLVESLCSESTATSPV
Kind of experiment: IL-6 produced by anti-FcεRIα activated human PDC (ELISA). The following applies: anti-FcεRIα-FITC activated PDC with NGF 25 ng/ml vs without NGF; p=0.0066. The arrangement: nerve growth factor receptor p75^NTR, which is expressed by human and murine plasmacytoid dendritic cells (PDC); endogenous in cells; host or cells: primary human plasmacytoid dendritic cells (BDCA-4+ selection) from buffy coats or from peripheral blood of allergic donors. The class given is cell-based. How it is done:
PDC isolated from peripheral blood were taken in RPMI 1640 medium (PAA) with penicillin G (100 U/ml), streptomycin ([…]), L-glutamine (2 mM), 10% heat inactivated FBS and IL-3 (R&D system) at 10 ng/ml. 2×10^5 cells were seeded per well in 200 μl medium in U-shaped bottom 96-well plate and incubated at 5% CO2 and 37° C. For IL-6 generation, mouse anti human FcεRI alpha-FITC (eBioscience) was added at 250 ng/ml to designated wells. p75^NTR blocking peptide TAT-Pep5 (Calbiochem) was employed at 100 nM to designated wells. NGF (R&D Systems) was added at concentration of 25 ng/ml to specified wells. All components were added following the sequence mentioned After 14 hour's stimulation the plate was centrifuged (270 g for 5 minutes). Supernatant was analyzed for IL-6 by ELISA (Bender MedSystems).
IL-6 ELISA was carried out following manufacturer's specifications with few modifications. […] Absorbance of whole plate was read on spectrophotometer at 450 nm as primary wave length and 620 nm as reference wave length. […]
We activated peripheral blood purified PDC by cross linking FcεRIα with anti-FcεRIα-FITC in the presence and absence of NGF at 25 ng/ml in-vitro. Supernatant was harvested after 12 hrs of activation and amount of IL-6 secreted was determined by ELISA. We have analysed 18 buffy coat samples.
A general note: An ELISA detects its analyte on a solid surface through an enzyme-linked reagent.

“Also recorded” adds a separate entry of the source.

Take “NGF: Nerve growth factor, best characterized neurotrophin; natural p75^NTR agonist (R&D Systems)”: the “type I diabetes incidence without CpG B” value with p75^NTR [1] is “no NGF dependent effect”. In addition, in the experiment with p75^NTR [1] (iv), the “time of onset of PDC induced type I diabetes (diabetes free time)” value is listed as “occurred at a significant later stage; also recorded: significantly prolonged”. The “production of IL-6” value with p75^NTR [2] was “significantly increased”.

For the origin of these results see patent publication US20190381169A1, “PHARMACEUTICAL COMBINATIONS FOR IMMUNOTHERAPY” (Technische Universitat Dresden, priority 2014, published 2019).
